Measurements taken from the Immune Epitope Database (IEDB).

Tests used:
HLA-A*26:01 = assay: IEDB peptide-MHC binding, purified MHC/competitive/fluorescence; filed as Kd, often an IC50 or EC50 that approximates it; ≥ and ≤ were set here for values at or beyond the usual limits of such assays; details: source organism: Francisella tularensis subsp. tularensis FSC198
HLA-A*30:01 = assay: IEDB peptide-MHC binding, purified MHC/direct/fluorescence; filed as Kd, often an IC50 or EC50 that approximates it; ≥ and ≤ were set here for values at or beyond the usual limits of such assays; details: source organism: Francisella tularensis subsp. tularensis FSC033
HLA-B*40:01 = assay: as above; details: source organism: Francisella tularensis subsp. tularensis FSC033
HLA-B*44:02 = assay: as above; details: source organism: Francisella tularensis subsp. tularensis FSC033
HLA-A*23:01 = assay: as above; details: source organism: Francisella tularensis subsp. tularensis FSC033
HLA-B*58:01 = assay: as above
HLA-A*02:50 = assay: as above; details: source organism: Francisella tularensis subsp. tularensis FSC033
HLA-B*18:01 = assay: as above; details: source organism: Francisella tularensis subsp. tularensis FSC033
HLA-B*07:02 = assay: as above
HLA-A*24:03 = assay: as above; details: source organism: Francisella tularensis subsp. tularensis FSC033
HLA-B*57:01 = assay: as above
HLA-A*29:02 [1] = assay: as above; details: source organism: Francisella tularensis subsp. tularensis FSC033
HLA-B*51:01 = assay: as above; details: source organism: Francisella tularensis subsp. tularensis FSC033
HLA-A*02:19 = assay: as above; details: source organism: Francisella tularensis subsp. tularensis FSC033
HLA-A*68:23 = assay: IEDB peptide-MHC binding, purified MHC/competitive/fluorescence; filed as Kd, often an IC50 or EC50 that approximates it; ≥ and ≤ were set here for values at or beyond the usual limits of such assays; details: source organism: Influenza A virus (A/Fort Monmouth/1/1947-mouse adapted(H1N1))
HLA-A*32:07 = assay: as above; details: source organism: Influenza A virus (A/Fort Monmouth/1/1947-mouse adapted(H1N1))
HLA-B*15:42 = assay: as above
HLA-B*45:06 = assay: as above
HLA-B*83:01 = assay: as above
HLA-A*32:15 = assay: as above; details: source organism: Influenza A virus (A/Fort Monmouth/1/1947-mouse adapted(H1N1))
HLA-C*15:02 = assay: IEDB peptide-MHC binding, purified MHC/direct/fluorescence; filed as Kd, often an IC50 or EC50 that approximates it; ≥ and ≤ were set here for values at or beyond the usual limits of such assays
HLA-B*15:17 = assay: as above
HLA-A*01:01 [2] = assay: IEDB peptide-MHC binding, purified MHC/competitive/fluorescence; filed as Kd, often an IC50 or EC50 that approximates it; ≥ and ≤ were set here for values at or beyond the usual limits of such assays; details: source organism: Homo sapiens
HLA-C*06:02 [3] = assay: as above; details: source organism: Homo sapiens
HLA-C*14:02 [4] = assay: as above; details: source organism: Homo sapiens
HLA-A*29:02 [5] = assay: as above; details: source organism: Homo sapiens
HLA-A*80:01 = assay: IEDB peptide-MHC binding, purified MHC/direct/fluorescence; filed as Kd, often an IC50 or EC50 that approximates it; ≥ and ≤ were set here for values at or beyond the usual limits of such assays; details: source organism: Mus musculus
HLA-B*39:01 = assay: IEDB peptide-MHC binding, purified MHC/competitive/fluorescence; filed as Kd, often an IC50 or EC50 that approximates it; ≥ and ≤ were set here for values at or beyond the usual limits of such assays; details: source organism: Influenza A virus (A/swine/Italy/1509-6/97(H1N1))
HLA-A*68:02 = assay: as above; details: source organism: Influenza A virus (A/swine/Italy/1509-6/97(H1N1))
HLA-B*15:09 = assay: as above; details: source organism: Influenza A virus (A/swine/Italy/1509-6/97(H1N1))
HLA-B*08:01 = assay: as above; details: source organism: Influenza A virus (A/swine/Italy/1509-6/97(H1N1))
HLA-A*26:02 = assay: as above; details: source organism: Influenza A virus (A/swine/Italy/1509-6/97(H1N1))
HLA-A*26:03 = assay: as above; details: source organism: Influenza A virus (A/swine/Italy/1509-6/97(H1N1))
HLA-A*01:01 [6] = assay: IEDB peptide-MHC binding, purified MHC/direct/fluorescence; filed as Kd, often an IC50 or EC50 that approximates it; ≥ and ≤ were set here for values at or beyond the usual limits of such assays; details: source organism: Influenza A virus (A/New Caledonia/20/1999(H1N1))
HLA-A*02:11 = assay: as above; details: source organism: Influenza A virus(A/swine/Henan/8/2004(H9N2))
HLA-A*69:01 = assay: as above; details: source organism: Influenza A virus (A/New Caledonia/20/1999(H1N1))
HLA-C*06:02 [7] = assay: as above; details: source organism: Influenza A virus (A/swine/Italy/1509-6/97(H1N1))
HLA-B*15:01 = assay: as above; details: source organism: Influenza A virus (A/New Caledonia/20/1999(H1N1))
HLA-C*14:02 [8] = assay: as above; details: source organism: Influenza A virus (A/swine/Italy/1509-6/97(H1N1))
HLA-B*15:02 = assay: as above; details: source organism: Influenza A virus(A/swine/Henan/8/2004(H9N2))
HLA-A*31:01 = assay: as above; details: source organism: Influenza A virus (A/New Caledonia/20/1999(H1N1))
HLA-B*08:03 = assay: as above; details: source organism: Influenza A virus(A/swine/Henan/8/2004(H9N2))
HLA-A*11:01 = assay: as above; details: source organism: Influenza A virus (A/New Caledonia/20/1999(H1N1))
HLA-B*27:05 = assay: as above; details: source organism: Influenza A virus (A/New Caledonia/20/1999(H1N1))
HLA-B*48:01 = assay: as above; details: source organism: Influenza A virus (A/New Caledonia/20/1999(H1N1))
HLA-A*02:01 [9] = assay: as above; details: source organism: Influenza A virus (A/New Caledonia/20/1999(H1N1))
HLA-A*03:01 = assay: as above; details: source organism: Influenza A virus (A/New Caledonia/20/1999(H1N1))
HLA-B*46:01 = assay: as above; details: source organism: Influenza A virus (A/New Caledonia/20/1999(H1N1))
HLA-A*02:01 [10] = assay: IEDB peptide-MHC binding, cellular MHC/competitive/fluorescence; ≥ and ≤ were set here for values at or beyond the usual limits of such assays; details: source organism: Homo sapiens
[11] = source organism: Francisella tularensis subsp. tularensis FSC033
[12] = source organism: Influenza A virus (A/Fort Monmouth/1/1947-mouse adapted(H1N1))
[13] = source organism: Influenza A virus (A/finch/Canada/NS1301/2001(H3N8))
[14] = source organism: Influenza A virus (A/New Caledonia/20/1999(H1N1))

NTIEELSGY
Kd (HLA-A*26:01): 0.6 nM
Kd (HLA-A*30:01): ≥ 20 µM
Kd (HLA-B*40:01): ≥ 20 µM
Kd (HLA-B*44:02): ≥ 20 µM
Kd (HLA-A*23:01): ≥ 20 µM
Kd (HLA-B*58:01; [11]): ≥ 20 µM
Kd (HLA-A*02:50): ≥ 20 µM
Kd (HLA-B*18:01): ≥ 20 µM
Kd (HLA-B*07:02; [11]): ≥ 20 µM
Kd (HLA-A*24:03): ≥ 20 µM
Kd (HLA-B*57:01; [11]): ≥ 20 µM
Kd (HLA-A*29:02 [1]): 28 nM
Kd (HLA-B*51:01): ≥ 20 µM
Kd (HLA-A*02:19): ≥ 20 µM

GTFEFTSFF
Kd (HLA-A*68:23): 5.7 nM
Kd (HLA-A*32:07): 23.8 nM
Kd (HLA-B*15:42; [12]): ≥ 5 µM
Kd (HLA-B*45:06; [12]): ≥ 5 µM
Kd (HLA-B*83:01; [12]): ≥ 5 µM
Kd (HLA-A*32:15): 893 nM
Kd (HLA-B*58:01; [13]): 0.496 µM
Kd (HLA-C*15:02; [12]): 3.66 µM
Kd (HLA-B*57:01; [13]): 0.36 µM
Kd (HLA-B*15:17; [13]): 5.9 nM

TFMDHVLRY
Kd (HLA-A*01:01 [2]): 1400 nM
Kd (HLA-C*06:02 [3]): 663 nM
Kd (HLA-C*14:02 [4]): 0.4 nM
Kd (HLA-B*15:42; source organism: Homo sapiens): ≥ 5 µM
Kd (HLA-B*45:06; source organism: Homo sapiens): ≥ 5 µM
Kd (HLA-B*83:01; source organism: Homo sapiens): ≥ 5 µM
Kd (HLA-A*29:02 [5]): ≤ 0.1 nM
Kd (HLA-A*80:01): 109 nM

WMACHSAAF
Kd (HLA-B*39:01): 59.5 nM
Kd (HLA-A*68:02): 929 nM
Kd (HLA-B*15:09): 600 nM
Kd (HLA-B*08:01): 77.2 nM
Kd (HLA-A*26:02): 0.4 nM
Kd (HLA-A*26:03): 158 nM
Kd (HLA-A*01:01 [6]): ≥ 20 µM
Kd (HLA-A*02:11): 60 nM
Kd (HLA-B*58:01; [14]): ≥ 20 µM
Kd (HLA-A*69:01): ≥ 20 µM
Kd (HLA-C*06:02 [7]): ≥ 20 µM
Kd (HLA-C*15:02; source organism: Influenza A virus (A/swine/Italy/1509-6/97(H1N1))): ≥ 20 µM
Kd (HLA-B*15:01): 18 nM
Kd (HLA-C*14:02 [8]): 43 nM
Kd (HLA-B*15:02): 5 nM
Kd (HLA-B*07:02; [14]): 9.8 µM
Kd (HLA-A*31:01): ≥ 20 µM
Kd (HLA-B*08:03): 83 nM
Kd (HLA-A*11:01): ≥ 20 µM
Kd (HLA-B*27:05): 6.3 µM
Kd (HLA-B*57:01; [14]): ≥ 20 µM
Kd (HLA-B*48:01): 1430 nM
Kd (HLA-A*02:01 [9]): ≥ 20 µM
Kd (HLA-A*03:01): ≥ 20 µM
Kd (HLA-B*15:17; [14]): 189 nM
Kd (HLA-B*46:01): 756 nM

LLLDVPTAAVQA
IC50 (HLA-A*02:01 [10]): 1890 nM
